Patent US20040248207A1 (UNIVERSITY COLLEGE LONDON, published 2004)
One block for each binder: values may come before it.

Tests used:
Assay in all cases: GST pull-down on glutathione-sepharose beads, anti-GFP immunoblot
[1] = biological target: T1, GFP/p11-1A fusion protein (rat, UniProt P05943 1-51)
T1 construct: Used as COS-7 cell lysate; not shown: GFP reporter at the N end and its junction; vector-encoded C-terminal tail after the XbaI site (reverse primer p11-2-1R has no stop codon)
T1 sequence: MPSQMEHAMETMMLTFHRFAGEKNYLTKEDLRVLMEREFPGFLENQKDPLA
Description: (§1) To examine the binding of p11 to the N-terminus of Naᵥ1.8 in vitro, glutathione-sepharose beads pre-incubated with purified GST, serving as control, or GST-SNS(I) were incubated at 4° C. overnight with GFP-p11 fusion protein or GFP protein extracted from transfected COS cells in PBS. After intensive washing with ice-cold PBS, the bound proteins were denatured in sample buffer (100 mM Tris-HCl pH 6.8, 4% SDS, 0.2% Bromophenol Blue, 20% Glycerol. 200 mM DDT), separated by 10% SDS-PAGE, and transferred to nitrocellulose membrane (Hybond ECL; Amersham Pharmacia Biotech). The membrane was blocked for 1 h in 5% nonfat dry mirnl in PBS-T at room temperature (0.1% Tween-20 in PBS, pH7.4). Primary anti-GFP antibody (Santa Cruz Biotechnology) in 1:800 dilution was applied for 1 hr at room temperature. Secondary antibody (horseradish peroxidase-conjugated sheep anti-mouse IgG, Amersham Pharmacia Biotech) in 1:2000 dilution was applied for 1 hr at room temperature. ECL Western Blotting Detection Reagents (Amersham Pharmacia Biotech) was applied according to the manufacturer's instructions and the blot was exposed to BioMax film (Kodak).
(§2) GFP/p11-1, -2, -3 fusion protein were expressed in COS-7 cells by transient transfection. The COS cell lysates were incubated with affinity-purified GST-SNS(I), the N-terminal domain of Naᵥ1.8 fused to GST, immobilized on glutathione-sepharose beads and were examined by immunoblotting with anti-GFP antibodies.
as §2, with “GFP/p11-1A, p11-2, p11-2-1, and p11-2-2” for “GFP/p11-1, -2, -3”, “proteins” for “protein”, “antibodies. […] These protein fragments correspond to amino acids 1-51, 33-51, 52-77 respectively. GST-SNS(I) efficiently pulled down cell lysate p11-2.” for “antibodies.”

[2] = biological target: T2, GFP/p11-1 fusion protein (rat)
T2 construct: Used as COS-7 cell lysate; not shown: GFP reporter at the N end and its junction; vector-encoded C-terminal tail after the XbaI site (reverse primer p11-1-3' has no stop codon)
T2 chain: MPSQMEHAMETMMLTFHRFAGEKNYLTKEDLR
Description: as §1, §2
as §2, with “GFP/p11-1A, p11-2, p11-2-1, and p11-2-2” for “GFP/p11-1, -2, -3”, “proteins” for “protein”, “antibodies. […] These protein fragments correspond to amino acids 1-51, 33-51, 52-77 respectively. GST-SNS(I) efficiently pulled down cell lysate p11-2.” for “antibodies.”

[3] = biological target: T3, GST control protein (UniProt P08515 1-218 = GST)
T3 construct: Negative control on glutathione-sepharose beads; also called purified GST
T3 sequence (P08515 whole entry): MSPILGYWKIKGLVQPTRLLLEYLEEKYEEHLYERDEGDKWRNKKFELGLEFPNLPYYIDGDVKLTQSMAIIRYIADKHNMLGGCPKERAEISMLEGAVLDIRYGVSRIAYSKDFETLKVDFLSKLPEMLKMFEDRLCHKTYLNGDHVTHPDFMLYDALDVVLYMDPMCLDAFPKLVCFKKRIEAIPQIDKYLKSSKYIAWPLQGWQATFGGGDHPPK
Description: as §1, §2
as §2, with “GFP/p11-1A, p11-2, p11-2-1, and p11-2-2” for “GFP/p11-1, -2, -3”, “proteins” for “protein”, “antibodies. […] These protein fragments correspond to amino acids 1-51, 33-51, 52-77 respectively. GST-SNS(I) efficiently pulled down cell lysate p11-2.” for “antibodies.”

- binding result [1]: no binding
- binding result [2]: no binding
B1: GST/Nav1.8 N-terminus fusion protein, designated GST-SNS(I) (other)
chain: MELPFASVGTTNFRRFTPESLAEIEKQIAAHRAAKKARTKHRGQEDKGEKPRPQLDLKDCNQLPKFYGELPAELVGEPLEDLDPFYSTHRTFMVLNKSRTISRFSATWALWLFSPFNLIRRTAIKVS
notes: also called GST/SNS(I) fusion protein; not shown: glutathione-S-transferase (GST) as encoded by vector pGEX-5X-1 (Amersham Pharmacia Biotech); species and limits not stat; vector-encoded residues between GST and the EcoRI site of pGEX-5X-1

- binding result [3]: no binding
B2: GFP-p11 fusion protein (other, not shown: large carriers; small tags and cut ends)
chain: MPSQMEHAMETMMLTFHRFAGEKNYLTKEDLRVLMEREFPGFLENQKDPLAVDKIMKDLDQCRDGKVGFQSFLSLVAGLIIACNDYFVVHMKQKK
notes: Expressed from pBS-GFP/p11 in COS-7 cells and used as cell extract
